According to patent US20160312207A1 (Stanford University, published 2016):

T1: human RSPO3 (human, UniProt Q9BXY4 22-272, limits assumed)
T1 construct: Recombinant protein; also called R-spondin 3
T1 sequence (looked up): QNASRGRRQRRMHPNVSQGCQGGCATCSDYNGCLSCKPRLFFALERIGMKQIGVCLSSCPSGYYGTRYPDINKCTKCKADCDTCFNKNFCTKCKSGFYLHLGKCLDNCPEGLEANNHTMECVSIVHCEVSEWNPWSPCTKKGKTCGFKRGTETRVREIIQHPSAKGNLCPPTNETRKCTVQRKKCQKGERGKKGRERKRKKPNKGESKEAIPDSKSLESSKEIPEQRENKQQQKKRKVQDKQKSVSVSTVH


What was measured:
human RSPO1 [1] = molecular target: T2, human RSPO1 (human, UniProt Q2MKA7 21-263, limits assumed); experiment: Biacore (SPR)
T2 construct: Recombinant protein; also called R-spondin 1; recombinant R-spondin

human RSPO2 [2] = molecular target: T3, human RSPO2 (human, UniProt Q6UXX9 22-243, limits assumed); experiment: Biacore (SPR)
T3 construct: Recombinant protein; also called R-spondin 2; recombinant human RSPO2

human RSPO3 [3] = molecular target: T1, human RSPO3; experiment: Biacore (SPR)
human RSPO4 [4] = molecular target: T4, human RSPO4 (human, UniProt Q2I0M5 20-234, limits assumed); experiment: Biacore (SPR)
T4 construct: Recombinant protein; also called R-spondin 4

human RSPO1 [5] = molecular target: T2, human RSPO1; experiment: Biacore (SPR); human RSPO1
human RSPO2 [6] = molecular target: T3, human RSPO2; experiment: Biacore (SPR); human RSPO2
human RSPO3 [7] = molecular target: T1, human RSPO3; experiment: Biacore (SPR); human RSPO3
human RSPO4 [8] = molecular target: T4, human RSPO4; experiment: Biacore (SPR); human RSPO4
human RSPO2 [9] = molecular target: T3, human RSPO2; experiment: Biacore (SPR), against ZNRF3-Fc ECD fusion tested in parallel
human RSPO3 [10] = molecular target: T1, human RSPO3; experiment: as above

T3 sequence (Q6UXX9 22-243 limits assumed): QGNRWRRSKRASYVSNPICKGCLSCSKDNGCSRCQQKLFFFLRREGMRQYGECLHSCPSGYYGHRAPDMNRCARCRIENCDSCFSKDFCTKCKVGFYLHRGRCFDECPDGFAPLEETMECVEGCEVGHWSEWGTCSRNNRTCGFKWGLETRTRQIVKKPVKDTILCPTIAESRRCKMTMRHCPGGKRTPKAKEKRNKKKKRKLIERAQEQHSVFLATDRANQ
T2 sequence (Q2MKA7 21-263 limits assumed): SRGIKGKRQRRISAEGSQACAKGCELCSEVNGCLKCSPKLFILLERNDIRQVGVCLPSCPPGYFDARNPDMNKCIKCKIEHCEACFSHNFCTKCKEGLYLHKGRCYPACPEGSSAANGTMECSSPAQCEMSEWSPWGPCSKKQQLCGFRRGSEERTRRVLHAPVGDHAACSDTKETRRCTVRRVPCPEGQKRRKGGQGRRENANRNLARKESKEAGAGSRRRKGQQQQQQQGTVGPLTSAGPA
T4 sequence (Q2I0M5 20-234 limits assumed): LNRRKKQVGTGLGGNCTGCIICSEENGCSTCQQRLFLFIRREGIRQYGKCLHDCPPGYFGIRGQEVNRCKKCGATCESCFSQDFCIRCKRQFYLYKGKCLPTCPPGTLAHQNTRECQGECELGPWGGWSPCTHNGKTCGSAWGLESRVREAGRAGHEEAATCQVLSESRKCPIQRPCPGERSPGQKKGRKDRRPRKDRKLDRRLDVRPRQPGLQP

| Kd (human RSPO1 [1]) | Kd (human RSPO2 [2]) | Kd (human RSPO3 [3]) | Kd (human RSPO4 [4]) | Kd (human RSPO1 [5]) | Kd (human RSPO2 [6]) | Kd (human RSPO3 [7]) | Kd (human RSPO4 [8]) | fold stronger affinity than the ZNRF3-Fc ECD fusion (human RSPO2 [9]) | fold stronger affinity than the ZNRF3-Fc ECD fusion (human RSPO3 [10]) | Molecule |
| --- | --- | --- | --- | --- | --- | --- | --- | --- | --- | --- |
| 381 nM | 12.8 nM | 6.58 nM | > 1000 nM |  |  |  |  |  |  | ZNRF3-Fc ECD fusion (Fc fusion) |
|  |  |  |  | 53 nM | 1.82 pM | 1.45 pM | 142 nM | ~7000 fold | ~4500 fold | soluble RNF43-Fc ECD fusion protein (Fc fusion, No linker between ECD and Fc is stated; also called RNF43 ECD-Fc fusion protein; RNF43 ECD) GFGHTGRVLAAAVESERSAEQKAVIRVIPLKMDPTGKLNLTLEGVFAGVAEVTPAEGKLMQSHPLYLCNASDDDNLEPGFISIVKLESPRRAPRPCLSLASKARMAGERGANAVLFDITEDRSAAEQLQQPLGLTKPVVLIWGSDAAKLMEFVYKNRKAYVWIELKEPPRRLEPRGPTIKPCPPCKCPAPNLLGGPSVFIFPPKIKDVLMISLSPIVTCVVVDVSEDDPDVQISWFVNNVEVHTAQTQTHREDYNSTLRVVSALPIQHQDWMSGKEFKCKVNNKDLPAPIERTISKPKGSVRAPQVYVLPPPEEEMTKKQVTLTCMVTDFMPEDIYVEWTNNGKTELNYKNTEPVLDSDGSYFMYSKLRVEKKNWVERNSYSCSVVHEGLHNHHTTKSFSRTPGK |
